Publication PMC11637584 (2024)

Molecular target: Ubiquitin (Homo sapiens, UniProt P0CG48)
Experiment: BLI

B1: MERS-CoV papain-like protease (PLpro) PLpro (protein)
chain: QLTIEVLVTVDGVNFRTVVLNNKNTYRSQLGCVFFNGADISDTIPDEKQNGHSLYLADNLTADETKALKELYGPVDPTFLHRFYSLKAAVHKWKMVVCDKVRSLKLSDNNCYLNAVIMTLDLLKDIKFVIPALQHAFMKHKGGDSTDFIALIMAYGNCTFGAPDDASRLLHTVLAKAELCCSARMVWREWCNVCGIKDVVLQGLKACCYVGVQTVEDLRARMTYVCQCGGERHRQIVEHTTPWLLLSGTPNEKLVTTSTAPDFVAFNVFQGIETAVGHYVHARLKGGLILKFDSGTVSKTSDWKCKVTDVLFPGQKYSSDCN
Kd: 40.8 µM
